According to patent US20160017022A1 (CORNELL UNIVERSITY, published 2016):

Target: Alexa 594 labeled His-tagged protoxin (Clostridium perfringens epsilon protoxin) (Clostridium perfringens, UniProt Q02307 33-328)
Assay: fluorescent toxin staining, MAL loss-of-function mouse

B1: mouse MAL (endogenous, in wild-type mouse tissues; absent in MAL KO mice) (receptor)
chain: MAPAAASGGSTLPSGFSVFTTFPDLLFVCEFVFGGLVWILIASSLVPLPLAQGWVMFVSVFCFVATTSLMILYIIGTHGGETSWITLDAAYHCVAALFYLSASVLEALATISMFDGFTYKHYHENIAAVVFAYVVTLIYVVHAVFSLIRWKSS
notes: whole, on cells
**Q.** Does B1 bind?
**A.** Result: binds
